Where “and” joins values, the source holds several entries; their conditions need not be identical. Equal values may be shown once.
How the values were obtained:
[1] = molecular target: Influenza B nucleoprotein (strain B/Memphis/13/03) (influenza B virus, strain B/Memphis/13/03); assay: SEC-MALLS
[2] = molecular target: Influenza B nucleoprotein (strain B/Memphis/13/03) (influenza B virus, strain B/Memphis/13/03); assay: negative stain electron microscopy

Substance: Influenza B nucleoprotein (strain B/Memphis/13/03) (natural protein)
- stoichiometry N [1]: 5 and 2 and 4
- stoichiometry N [2]: 2 and 4 and 5

— paper PMC5035961
